Assay results reported in US20140377284A1 (BIOCEROX PRODUCTS B V, published 2014).
Numbering of substitutions follows the chain as printed. Blank lines part the entries; values can stand above or below the molecule they belong to.

Experiments:
[1] = biological target: T1, human CD134 (full-length, on cells) (human, UniProt P43489 29-277); assay: flow cytometry, PHA-stimulated human CD3+ T lymphocytes
T1 sequence: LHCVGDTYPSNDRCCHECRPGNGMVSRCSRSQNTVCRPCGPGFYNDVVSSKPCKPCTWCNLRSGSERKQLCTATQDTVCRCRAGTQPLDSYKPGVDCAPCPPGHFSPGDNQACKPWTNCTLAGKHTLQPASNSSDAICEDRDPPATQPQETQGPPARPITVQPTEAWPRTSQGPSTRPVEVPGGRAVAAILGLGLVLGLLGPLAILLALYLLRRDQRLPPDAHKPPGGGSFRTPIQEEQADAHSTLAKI

[2] = biological target: T1, human CD134 (full-length, on cells); assay: cell-based or functional assay
[3] = biological target: T1, human CD134 (full-length, on cells); assay: flow cytometry, stable CD134 293-F clone no. 23
Protocol: (§1) Full-length human CD134 (SEQ ID NO. 1) was re-cloned in a pcDNA3.1-derived expression plasmid (see Example 11 (d) below). […] After extensive washing in PBS/BSA/NaN₃, cells were subsequently incubated with 1:200 diluted PE-conjugated goat anti-mouse IgG (Fcγ specific) antibodies (Jackson ImmunoResearch) or with 1:200 diluted PE-conjugated goat anti-human IgG (Fcγ specific) antibodies (Jackson ImmunoResearch) for 30 minutes at 4° C. After extensive washing in PBS/BSA/NaN₃, cells were fixed in 2% formaldehyde in PBS/BSA/NaN₃ for 30 minutes at 4° C. Binding of antibodies was measured using flow cytometry (FACSCalibur; BD Biosciences).

[4] = biological target: T2, recombinant human CD134:human Fcγ (IgG1) fusion protein (human, UniProt P01857-1 100-330 = IgG part, limits assumed); assay: ELISA, plate-bound CD134:Fc 50 ng/well
T2 construct: domain: Fcγ (IgG1); Bought (R&D Systems); also called rhuCD134
T2 sequence (P01857 other isoform, or with tags, fused parts or gaps limits assumed): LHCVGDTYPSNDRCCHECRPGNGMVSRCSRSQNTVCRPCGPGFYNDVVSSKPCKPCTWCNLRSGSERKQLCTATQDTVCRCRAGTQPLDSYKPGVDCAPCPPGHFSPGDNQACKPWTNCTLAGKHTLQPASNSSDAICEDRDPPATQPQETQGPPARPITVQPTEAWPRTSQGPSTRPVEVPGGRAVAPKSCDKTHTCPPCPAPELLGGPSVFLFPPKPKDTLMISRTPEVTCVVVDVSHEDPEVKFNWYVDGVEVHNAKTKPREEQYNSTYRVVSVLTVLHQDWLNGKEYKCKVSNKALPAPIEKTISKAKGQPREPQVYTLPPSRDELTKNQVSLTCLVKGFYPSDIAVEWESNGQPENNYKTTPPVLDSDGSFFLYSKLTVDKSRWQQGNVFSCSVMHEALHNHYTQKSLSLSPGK
Protocol: Ninety six-wells flat-bottom ELISA plates (Corning) were coated with 50 ng/well recombinant human CD134:human Fcγ (IgG1) fusion protein (R&D Systems) in PBS o/n at 4° C. After extensive washing in PBS/0.05% Tween 20, plates were blocked in PBS/0.05% Tween 20/1% BSA fraction V (Roche) for 1 hour at RT. […] After extensive washing in PBS/0.05% Tween 20, binding of antibodies was determined with 1:5000 diluted horseradish peroxidase-conjugated goat anti-mouse (Fcγ specific) antibodies (Jackson ImmunoResearch) or with 1:4000 diluted horseradish peroxidase-conjugated goat anti-human κ-specific antibodies (Southern Biotech) for 1 hour at RT, followed by a ready-to-use solution of TMB substrate (Invitrogen) for colorimetric detection. After adding 1 M H₂SO₄, optical densities were measured at, a wavelength of 450 nm (reference wavelength of 655 nm) using a microplate reader (BioRad).

[5] = biological target: T1, human CD134 (full-length, on cells); assay: competition flow cytometry, stable CD134 293-F clone no. 5; competitor biotinylated mouse 12H3 at 700 ng/mL
Protocol: Full-length human CD134 (SEQ ID NO1) was re-cloned in a pcDNA3.1-derived expression plasmid (see Example 11 (c) above). […] After extensive washing in PBS/BSA/NaN₃, cells were fixed in 2% formaldehyde in PBS/BSA/NaN₃ for 30 minutes at 4° C.

[6] = biological target: T3, truncated human CD134 'truncated (tc) CRD4' construct (human, UniProt P43489 147-277); assay: flow cytometry, transiently transfected 293-F cells (parental 12H3: binding completely absent on tcCRD4)
T3 construct: also called truncated CRD4
T3 sequence: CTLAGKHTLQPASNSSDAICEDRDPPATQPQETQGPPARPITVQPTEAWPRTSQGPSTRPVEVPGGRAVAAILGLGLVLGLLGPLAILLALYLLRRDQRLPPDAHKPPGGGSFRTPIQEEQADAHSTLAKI
Protocol: After 48-72 h, surface human CD134 expression on transfected cells was analyzed by FACS analysis. To this end, transfected cells were harvested and put at 1-2×10⁶ cells/mL in ice-chilled PBS/BSA/NaN₃. […] After extensive washing in PBS/BSA/NaN₃, cells were subsequently incubated with 1:200 diluted PE-conjugated goat anti-human IgG (Fcγ specific) antibodies (Jackson ImmunoResearch) for 30 minutes at 4° C. After extensive washing in PBS/BSA/NaN₃, cells were fixed in 2% formaldehyde in PBS/BSA/NaN₃ for 30 minutes at 4° C. Binding of antibodies was measured using flow cytometry (FACSCalibur; BD Biosciences).

[7] = biological target: T1, human CD134 (full-length, on cells); assay: flow cytometry, stable CD134 293-F clone no. 5
Protocol: as §1

EC50 [1]: 2.5 µg/mL | saturating concentration [1]: 5 µg/mL
Molecule: commercially available mouse anti-human CD134 antibody clone ACT35

Replication Index, Treg/Teff ratio 0:1, donor 1 [2]: 13.9 | Replication Index, Treg/Teff ratio 0:1, donor 2 [2]: 12.1 | Replication Index, Treg/Teff ratio 0:1, donor 3 [2]: 10.2 | Replication Index, Treg/Teff ratio 0:1, donor 4 [2]: 10.7 | Replication Index, Treg/Teff ratio 0:1, donor 5 [2]: 8.66 | Replication Index, Treg/Teff ratio 1:2, donor 1 [2]: 5.33 | Replication Index, Treg/Teff ratio 1:2, donor 2 [2]: 5.82 | Replication Index, Treg/Teff ratio 1:2, donor 3 [2]: 6 | Replication Index, Treg/Teff ratio 1:2, donor 4 [2]: 6.05 | Replication Index, Treg/Teff ratio 1:2, donor 5 [2]: 4.71 | Replication Index, Treg/Teff ratio 1:4, donor 1 [2]: 5.23 | Replication Index, Treg/Teff ratio 1:4, donor 2 [2]: 5.21 | Replication Index, Treg/Teff ratio 1:4, donor 3 [2]: 5.23 | Replication Index, Treg/Teff ratio 1:4, donor 4 [2]: 5.51 | Replication Index, Treg/Teff ratio 1:4, donor 5 [2]: 4.81 | EC50 [3]: < 0.2 µg/mL | EC50 [4]: ~0.05 µg/mL | IC50 [5]: ~1.5 µg/mL
B1: humanized IgG4κ anti-human CD134 antibody clone 12H3 version 12H3_VL1VH2 (antibody, V domains shown)
VH: QVQLVQSGAEVKKPGSSVKVSCKASGYTFKDYTMHWVRQAPGQGLEWIGGIYPNNGGSTYNQNFKDRVTLTADKSTSTAYMELSSLRSEDTAVYYCARMGYHGPHLDFDVWGQGTTVTVSS
VL: DIQMTQSPSSLSASVGDRVTITCKASQDVGAAVAWYQQKPGKAPKLLIYWASTRHTGVPSRFSGSGSGTDFTLTISSLQPEDFATYYCQQYINYPLTFGGGTKVEIKR
notes: Stabilized human IgG4/κ; end of each range computed; also called 12H3_VL1H2; 2H3 VL1VH2 (SF2)

EC50 [3]: < 0.2 µg/mL | EC50 [4]: ~0.05 µg/mL | IC50 [5]: ~1.5 µg/mL
B2: humanized IgG4κ anti-human CD134 antibody clone 12H3 version 12H3_VL2VH2 (antibody, V domains shown)
VH: B1 VH
VL: B1 VL with S60D, S65G
notes: Stabilized human IgG4/κ; end of each range computed; also called 12H3_VL2H2

EC50 [3]: < 0.2 µg/mL | EC50 [4]: ~0.05 µg/mL | IC50 [5]: ~1.5 µg/mL
B3: humanized IgG4κ anti-human CD134 antibody clone 12H3 version 12H3_VL2VH3 (antibody, V domains shown)
VH: B1 VH with V68A, A72V
VL: B1 VL with S60D, S65G
notes: Stabilized human IgG4/κ; end of each range computed

EC50 [3]: < 0.2 µg/mL | EC50 [4]: ~0.05 µg/mL | IC50 [5]: ~1.5 µg/mL
B4: humanized IgG4κ anti-human CD134 antibody clone 12H3 version 12H3_VL2VH1 (antibody, V domains shown)
VH: B1 VH with I48M, L70I
VL: B1 VL with S60D, S65G
notes: Stabilized human IgG4/κ; end of each range computed; also called 12H3_VL2H1

EC50 [3]: < 0.2 µg/mL | EC50 [4]: ~0.05 µg/mL | IC50 [5]: ~1.5 µg/mL
B5: humanized IgG4κ anti-human CD134 antibody clone 12H3 version 12H3_VL1VH1 (antibody, V domains shown)
VH: B1 VH with I48M, L70I
VL: B1 VL
notes: Stabilized human IgG4 (Angal et al.)/κ; also called 12H3_VL1H1

EC50 [3]: < 0.2 µg/mL | EC50 [4]: ~0.05 µg/mL | IC50 [5]: ~1.5 µg/mL
B6: humanized IgG4κ anti-human CD134 antibody clone 12H3 version 12H3_VL1VH3 (antibody, V domains shown)
VH: B1 VH with V68A, A72V
VL: B1 VL
notes: Stabilized human IgG4/κ; end of each range computed; also called 12H3_VL1H3

binding result [6]: no binding (tested: 20.0 µg/mL)
B7: chimeric human IgG1κ anti-human CD134 monoclonal antibody clone 12H3 (antibody, V domains shown)
VH: EVQLQQSGPELVKPGASVKISCKTSGYTFKDYTMHWVKQSHGKSLEWIGGIYPNNGGSTYNQNFKDKATLTVDKSSSTAYMEFRSLTSEDSAVYYCARMGYHGPHLDFDVWGAGTTVTVSP
VL: DIVMTQSHKFMSTSLGDRVSITCKASQDVGAAVAWYQQKPGQSPKLLIYWASTRHTGVPDRFTGGGSGTDFTLTISNVQSEDLTDYFCQQYINYPLTFGGGTKLEIKR
notes: Human IgG1/kappa constant regions

EC50 [1]: ~2.5 µg/mL
B8: mouse anti-human CD134 monoclonal antibody clone 20E5 (antibody, V domains shown)
VH: EVQLQQSGPELVKPGASVKMSCKASGYTFTSYVMHWVKQKPGQGLEWIGYINPYNDGTKYNEKFKGKATLTSDKSSSTAYMELSSLTSEDSAVYYCANYYGSSLSMDYWGQGTSVTVSS
VL: DIQMTQTTSSLSASLGDRVTISCRASQDISNYLNWYQQKPDGTVKLLIYYTSRLHSGVPSRFSGSGSGTDYSLTISNLEQEDIATYFCQQGNTLPWTFGGGTKLEIKR
notes: also called m20E5; parental mouse anti-human CD134 antibody clone 20E5

binding result [7]: binds | EC50 [4]: ~0.15 µg/mL
B9: humanized IgG4κ anti-human CD134 antibody clone 20E5 version 20E5_VL1VH2 (antibody, V domains shown)
VH: QVQLVQSGAEVKKPGASVKVSCKASGYTFTSYVMHWVRQAPGQRLEWIGYINPYNDGTKYNEKFKGRATITSDTSASTAYMELSSLRSEDTAVYYCANYYGSSLSMDYWGQGTLVTVSS
VL: DIQMTQSPSSLSASVGDRVTITCRASQDISNYLNWYQQKPGKAPKLLIYYTSRLHSGVPSRFSGSGSGTDYTLTISSLQPEDFATYYCQQGNTLPWTFGQGTKVEIKR
notes: Stabilized human IgG4/κ; end of each range computed; also called 20E5_VL1H2; VL1H2

binding result [7]: binds | EC50 [4]: ~0.1 µg/mL
B10: humanized IgG4κ anti-human CD134 antibody clone 20E5 version 20E5_VL2VH2 (antibody, V domains shown)
VH: B9 VH
VL: B9 VL with P44V, Y87F
notes: as for B3

binding result [7]: binds | EC50 [4]: ~0.1 µg/mL
B11: humanized IgG4κ anti-human CD134 antibody clone 20E5 version 20E5_VL2VH3 (antibody, V domains shown)
VH: B9 VH with I70L, T74K
VL: B9 VL with P44V, Y87F
notes: as for B3

binding result [7]: binds | EC50 [4]: ~0.1 µg/mL
B12: humanized IgG4κ anti-human CD134 antibody clone 20E5 version 20E5_VL1VH3 (antibody, V domains shown)
VH: B9 VH with I70L, T74K
VL: B9 VL
notes: Stabilized human IgG4/κ; end of each range computed; also called 20E5_VL1H3; 2-E5_VL1VH3

binding result [7]: binds | EC50 [4]: ~0.1 µg/mL
B13: humanized IgG4κ anti-human CD134 antibody clone 20E5 version 20E5_VL2VH1 (antibody, V domains shown)
VH: B9 VH with I48M, A68V
VL: B9 VL with P44V, Y87F
notes: Stabilized human IgG4/κ; end of each range computed; also called 20E5_VL2H1
